Reference: patent US20150368642A1, “LNA OLIGONUCLEOTIDE CARBOHYDRATE CONJUGATES” (HOFFMANN-LA ROCHE INC., priority 2013, published 2015)
Strand notation (5' to 3'): a small letter for the sugar, then the base; units joined by * are phosphorothioate-linked, units joined directly phosphodiester-linked; [ ] holds rarer units or linkages, { } end groups; capitals alone tell only the bases. l = locked nucleic acid (LNA); [5mC] = 5-methylcytosine; d = 2'-deoxy (DNA)

What was measured:
[1] = In vitro cleavage in serum; type: in vitro ADME; conditions: 200 μg/g
Description: (§1) Liver, kidney and serum (see table below) were spiked with oligonucleotide SEQ ID NO 21 to concentrations of 200 μg/g tissue. Liver and kidney samples collected from NMRI mice were homogenized in a homogenisation buffer (0.5% Igepal CA-630, 25 mM Tris pH 8.0, 100 mM NaCl, pH 8.0 (adjusted with 1 N NaOH). The homogenates were incubated for 24 hours at 37° and thereafter the homogenates were extracted with phenol-chloroform. The content of cleaved and non cleaved oligonucleotide in the extract from liver and kidney and from the serum were determined against a standard using the above HPLC method.

[2] = In vitro cleavage in kidney homogenate; type: in vitro ADME, NMRI mice; conditions: 200 μg/g tissue, 24 hours at 37°
Description: as §1

[3] = In vitro cleavage in liver homogenate; type: in vitro ADME, NMRI mice; conditions: 200 μg/g tissue, 24 hours at 37°
Description: as §1

HBV [4] = conditions: WO2011/47312; cited from earlier work
HBV [5] = assay: HBV mouse hydrodynamic tailvein injection model, HBV DNA in liver by qPCR; type: in vivo, Balb/C mouse; conditions: Balb/C mice, single injection 24 hours before hydrodynamic injection; SEQ ID 55 2 and 10 mg/kg, SEQ ID 56 2.7 and 13.5 mg/kg
From the text: An LNA oligomer can be assessed for antiviral effect in vivo in a mouse strain, such as BALB/c or C57B/6, where HBV replication can be established by hydrodynamic tail vein injection of a plasmid, such as pAAV/HBV1.3, expressing a partially repeated HBV pregenomic RNA (J Virol. 1995 October; 69(10):6158-69) or pAAV2/HBV1.3, a derivative thereof (WuxiAppTech, Wuxi, China). The injection of the plasmid in a high volume of saline, equal to 8-12% of the body mass of the mouse, will result in the accumulation and expression of the viral pregenomic RNA in the liver, subsequently leading to the establishment of an acute HBV infection. Treatment of the animals with an LNA oligomer can be initiated 1 or more days before the injection of the plasmid or 1 day after the injection of the plasmid. Delivery of the LNA oligomer in saline can be done by intravenous or subcutaneous injection.
An in vivo experiment was performed on SEQ ID 55 and SEQ ID 56, the latter being a GalNAC conjugate of the former (conj1a). The LNA compounds were tested for efficacy against HBV in the mouse hydrodynamic tailvein injection model using the Balb/C mouse strain. LNA compounds were be tested at equimolar doses; 2 and 10 mg/kg, single injection (SEQ ID 55) and at 2.7 and 13.5 mg/kg, single injection (SEQ ID 56). The LNA anti-HBV compounds were compared to saline and to entecavir, an inhibitor of the HBV reverse transcriptase. Entecavir was dosed p.o. daily at 0.1 mg/kg. Where applicable, the animals were treated with the LNA compound 24 hours before the hydrodynamic injection. Entecavir was given in daily doses as described starting 24 hours after the hydrodynamic injection. […] All the animals were monitored on a daily basis for body weight changes and clinical signs for the duration of the in vivo study. […] All the blood samples were collected in tubes containing heparin sodium The portion of the left lobe of each liver was used to determine the level of HBV DNA replication by qPCR, as copies per unit weight of liver in which the quantity of total HBV DNA level is subtracted by the quantity of pAAV2/HBV DNA level. […]

Substance	% cleaved after 24 hours in serum [1] [%]	% cleaved after 24 hrs kidney homogenate [2] [%]	% cleaved after 24 hrs liver homogenate [3] [%]	effectiveness against HBV as highlighted in the art (HBV [4])	effect on replication of HBV / HBV DNA level in the liver (HBV [5])
21 (TCAGCATTGGTATTCA; LNA gapmer conjugate, pattern not given here) [compound 21]	0	95	83	–	–
SEQ ID NO 55: 5′-GsAsGsGscsastsasgscsasgs^mCsAsGsG-3′; HBV LNA gapmer disclosed in WO2011/47312 (lG*lA*lG*lG*dC*dA*dT*dA*dG*dC*dA*dG*l[5mC]*lA*lG*lG) [reference compound]	–	–	–	particularly effective against HBV	little effect on the replication of HBV in the liver
